Test results: patent US20230272051A1 (CENTIVAX, published 2023)
Where a chain is given by its changes, count along the chain named.

B1: COVID19_P13_G12 (scFv, V domains shown)
VH: QVQLVQSGAEVKKPGSSVKVSCKASGYTFINYEIHWVRQAPGQGLEWMGGITPIFGTANYAQKFQGRVTITADESTSTAYMELSSLRSEDTAVYYCARDTVMGGMDVWGQGTLVTVSS
VL: SSYVLTQPPSVSVAPGKTARITCGGNNIGSKSVHWYQQKPGQAPVLVIYYDSDRPSGIPERFSGSNSGNTATLTISRVEAGDEADYYCQVWDSSSDYVFGGGTKLTVLA
B2: COVID19_P02_D10 (scFv, V domains shown)
VH: B1 VH with T28M, I30T, N31E, Y32F, E33Y, I34M, T52I, I54V, F55S, D99E
VL: B1 VL
B3: COVID19_P13_D01 (scFv, V domains shown)
VH: B1 VH with I30S, N31D, Y32F, E33D, H35N, T52I, A97G, R98M, D106T, V107S
VL: B1 VL with S95H
B4: COVID19_P01_G05 (scFv, V domains shown)
VH: B1 VH with I30T, N31D, Y32F, E33Y, T52I, R98L, D99E
VL: B1 VL with D96H
B5: COVID19_P13_B12 (scFv, V domains shown)
VH: B1 VH with I30T, N31D, Y32F, E33H, I34M, T52I, R98L, D99E
VL: B1 VL
B6: COVID19_P14_C01 (scFv, V domains shown)
VH: B1 VH with I30S, N31D, Y32F, E33Y, I34L, R98M, D99E
VL: B1 VL
B7: COVID19_P13_A08 (scFv, V domains shown)
VH: B1 VH with E33D, H35N
VL: B1 VL with S94R
B8: COVID19_P14_D07 (scFv, V domains shown)
VH: B1 VH with I30S, N31S, Y32F, E33Y, T52I, T57E, N59E, Q62H, R98M, D99E
VL: B1 VL
B9: COVID19_P14_B08 (scFv, V domains shown)
VH: QVQLVQSGAEVKKPGSSVKVSCKASGYTFTSYYVHWVRQAPGQGLEWMGGILPILGTPHYAQKFQGRVTITADESTSTAYMELSSLRSEDTAVYYCALETVMGGMTAWGQGTLVTVSS
VL: B1 VL
B10: COVID19_P13_H02 (scFv, V domains shown)
VH: B1 VH with I30T, N31G, Y32F, E33Y, I34M, H35Q, F55L, D99E, T100I
VL: B1 VL with V90S
B11: COVID19_P13_D11 (scFv, V domains shown)
VH: B1 VH with T28S, I30N, N31A, Y32F, E33Y, T52I, R98L, D99E
VL: B1 VL with S93G
B12: COVID19_P01_H04 (scFv, V domains shown)
VH: B1 VH with T28P, I30S, N31S, H35N, R98D, D99E
VL: B1 VL with S95N
B13: COVID19_P01_C09 (scFv, V domains shown)
VH: B1 VH with I30T, N31S, Y32F, E33D, T52I, R98Y, D99E
VL: B1 VL with D96Y
B14: COVID19_P01_B06 (scFv, V domains shown)
VH: B9 VH with T30S, S31A, V34M, L52T, I54L, L55F, H59S, M105V, T106G, A107V
VL: B1 VL with G81V
B15: COVID19_P02_C07 (scFv, V domains shown)
VH: B1 VH with I30S, N31S, E33Y, T52I, T57E, N59E, Q62H, R98M, D99E
VL: B1 VL
B16: COVID19_P14_D11 (scFv, V domains shown)
VH: QVQLVQSGAEVKKPGSSVKVSCKASGYTFNRFAMTWVRQAPGQGLEWMGTINPSGGSTIYTQRFQGRVTITADESTSTAYMELSSLRSEDTAVYYCGHDTVMGGMGEWGQGTLVTVSS
VL: B1 VL with V90S, W91T
B17: COVID19_P13_C07 (scFv, V domains shown)
VH: QVQLVQSGAEVKKPGSSVKVSCKASGGTFSRYDINWVRQAPGQGLEWMGIINPSGGSTTYAQKFQGRVTITADESTSTAYMELSSLRSEDTAVYYCAHDTVMGGMDVWGQGTLVTVSS
VL: B1 VL with D96Y
B18: COVID19_P01_E12 (scFv, V domains shown)
VH: QVQLVQSGAEVKKPGSSVKVSCKASGYTFTTYDINWVRQAPGQGLEWMGWINPNSGGTNYAQKFQGRVTITADESTSTAYMELSSLRSEDTAVYYCARDTYWGGMDVWGQGTLVTVSS
VL: B1 VL with Y50D, D96F
B19: COVID19_P02_H04 (scFv, V domains shown)
VH: B1 VH with I30S, N31S, Y32F, E33H, H35N, T57I, R98L, D99E
VL: B1 VL with V90S, S95G
B20: COVID19_P14_C12 (scFv, V domains shown)
VH: B18 VH with W50I, N52D, N54I, S55G, G57T, Y101V, W102G, G103F
VL: B1 VL with Y50D, D96L
B21: COVID19_P01_E06 (scFv, V domains shown)
VH: QVQLVQSGAEVKKPGSSVKVSCKASGCTFTRFTMHWVRQAPGQGLEWMGGITPIFGITNYAQKFQGRVTITADESTSTAYMELSSLRSEDTAVYYCAHDTVMGGMEEWGQGTLVTVSS
VL: B1 VL with S95N

Target: T1, SARS-CoV-2 Receptor Binding Domain (RBD) protein (SARS-CoV-2, UniProt P0DTC2 319-541)
T1 construct: also called Sars-Cov-2 (COV2)
Experiment: SPR (Carterra LSA)

Binder | Kd [nM]
B1 | < 50
B2 | < 50
B3 | < 50
B4 | < 50
B5 | < 50
B6 | < 50
B7 | < 50
B8 | < 50
B9 | < 50
B10 | < 50
B11 | < 50
B12 | < 50
B13 | < 50
B14 | < 50
B15 | < 50

Target: T1, SARS-CoV-2 Receptor Binding Domain …
Experiment: SPR (Carterra LSA); scFv captured by anti-V5, RBD as analyte

Binder | Kd [nM] | koff [s⁻¹] | kon [M⁻¹ s⁻¹]
B1 | 6.48 | 0.00088 | 140000
B16 | 48.2 | 0.00987 | 205000
B17 | 41.5 | 0.0095 | 230000
B18 | 32.5 | 0.0108 | 331000
B2 | 26.4 | 0.0029 | 110000
B3 | 3.14 | 0.00035 | 110000
B4 | 2.89 | 0.00123 | 427000
B5 | 32.7 | 0.0049 | 150000
B6 | 12.1 | 0.00191 | 158000
B7 | 10 | 0.00046 | 46000
B8 | 6.08 | 0.00232 | 381000
B9 | 30.8 | 0.0115 | 374000
B10 | 40.6 | 0.0084 | 210000
B11 | 35 | 0.011 | 310000
B12 | 0.95 | 0.00056 | 590000
B13 | 18.2 | 0.0097 | 532000
B14 | 28 | 0.0122 | 437000
B15 | 4.34 | 0.00279 | 642000
B19 | 31.9 | 0.00781 | 245000
B20 | 7.8 | 0.000725 | 93000
B21 | 48.7 | 0.0118 | 242000
